Kd data for one molecule are collected here from PMC9023272 (Nucleic Acids Research, 2022).

Test [1] addresses T1, DEAD-box protein 5 (Dbp5), full length (Saccharomyces cerevisiae, UniProt P20449 1-482).
T1 sequence (looked up): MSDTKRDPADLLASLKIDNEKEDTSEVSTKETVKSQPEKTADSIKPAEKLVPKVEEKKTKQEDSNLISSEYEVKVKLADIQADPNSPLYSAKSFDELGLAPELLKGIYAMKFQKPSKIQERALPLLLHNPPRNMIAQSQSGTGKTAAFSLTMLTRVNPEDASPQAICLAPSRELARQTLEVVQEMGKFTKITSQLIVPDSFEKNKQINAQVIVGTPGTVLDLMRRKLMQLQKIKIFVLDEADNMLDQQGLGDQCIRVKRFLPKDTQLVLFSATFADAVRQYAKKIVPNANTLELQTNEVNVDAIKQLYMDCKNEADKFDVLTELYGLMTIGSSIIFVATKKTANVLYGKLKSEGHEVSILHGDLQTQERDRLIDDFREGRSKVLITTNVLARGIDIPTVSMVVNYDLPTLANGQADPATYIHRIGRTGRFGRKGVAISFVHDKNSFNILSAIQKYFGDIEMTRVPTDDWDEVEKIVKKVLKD
Kind of test: detailed balance of Scheme 3 from measured equilibrium constants.

Test [2] has as its target T1, DEAD-box protein 5 (Dbp5), full length. Described as above. This is another data set of the same source.
Test [3] shares this target. The test is described as above. This is another data set of the same source.
Test [4] has the same target. The experiment in a line: detailed balance of Scheme 1 from measured equilibrium constants.
The target is the same in test [5]. Kind of test: stopped-flow fluorescence.

B1: Gle1 (a.a. 244–538), soluble truncated (domain or fragment, Saccharomyces cerevisiae, UniProt Q12315 244-538, looked up)
chain: TNFDKISKMFWHYKDKIAQIKQDIVLPIKKADVNVRNLLSRHKRKINPKFGQLTNSNQQLFKIQNELTQLINDTKGDSLAYHWILNFIAKAVVHQAETEVRVKPESALPLGKLTLYLLVQFPELQELFMARLVKKCPFVIGFTCEIDTEKGRQNMGWKRNNENKWEDNTSYDERMGGILSLFAIITRLQLPQEFITTTSHPFPIALSWHILARICNTPLNLITNTHFVILGSWWDAAAVQFLQAYGNQASKLLILIGEELTSRMAEKKYVGAARLRILLEAWQNNNMESFPEMSP
By Kd is commonly meant the constant that tells how readily two partners part at equilibrium. Read a high Kd as weaker binding. As to B1, the Kd in test [1] was determined as 500 ± 200 nM; in test [2], 1.5 ± 0.8 nM; in test [3], 600 ± 200 nM; in test [4], 800 ± 300 nM; in test [5] it was 170 ± 150 nM.
